# Reference: the RNAGym collection of RNA variant scans (doi:10.1073/pnas.2313332121)
# Variants at the floor of the assay were thinned out.
# B1: TPR 5TU (parent)
# chain: GGAUCUUCUCGAUCUAACAAAAAAGACAAAUCUGCCACAAAGCUUGAGAGCAUCUUCGGAUGCAGAGGCGGCAGCCUUCGGUGGCGCGAUAGCGCCAACGUUCUCAACUAUGACACGCAAAACGCGUGCUCCGUUGAAUGGAGUUUAUCAUG
# Variants of: B1
# Assay: polymerase ribozyme fitness, log enrichment relative to wild type (log ratio); higher = more active; in vitro selection for triplet polymerase activity
# Summary of the method: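 PCR was used to build mutant libraries for each subunit of a heterodimeric triplet polymerase ribozyme, which were then transcribed. A single in vitro selection round, in triplicate, used a frozen incubation at −7 °C and recovered extended constructs by gel excision, streptavidin beads and RT-PCR. Fitness is the logarithm of genotype enrichment relative to wild-type enrichment, averaged over replicates with inverse-variance weights. The logarithm is base 2, and after Illumina sequencing only genotypes with ≥10 input reads and ≥1 read per output were kept.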
row,Variant,polymerase ribozyme fitness (log ratio)
1,C79A A106G U146G,≤ -4.2
2,G80C G94A,≤ -4.2
3,G81A C103A,-1.13
4,U82C C85A U145C,0.554
5,C76U G84U G143A,-2.57
6,G81A G86A U148A,-3.94
7,G80U C118A A119G,-1.3
8,G80A G84A A120G,-1.33
9,C79G G124U U139C,≤ -4.2
10,U82C G94U A98G A107C,≤ -4.2
11,G80A U144G,1.27
12,U82G A110G C125G A137U,≤ -4.2
13,U78C C87U G92A A115U,-2.33
14,U77A G81A A113U U134G,≤ -4.2
15,G81C C93U U130G C131U A150U,≤ -4.2
16,C79U G84A,-3.04
17,U82A A91G C105U,-2.53
18,G80A A119U,-0.405
19,U77C G92C,-3.48
20,C76U C96U,0.0365
21,G81A C85A G136A,0.0509
22,C79G G88C G92A C125G,≤ -4.2
23,U82C C93G C116G C118U G140A A150C,≤ -4.2
24,U77G A89G C95G C105G C108G,≤ -4.2

row,Variant,polymerase ribozyme fitness (log ratio)
1,G80C C96U,-3.79
2,G81C C132G,-3.75
3,G81C C103U U134G,-2.49
4,G80U U109C G143C,-4.04
5,U78A U90C,≤ -4.2
6,U78C C93U C99A A115C,-4.13
7,C79A A91U A107C G124C U144C,≤ -4.2
8,G80A C93U U102A,-3.01
9,U82C A115U G136C,-3.84
10,C79U A97G,-3.02
11,C79G C125U A142C U148C U151G,≤ -4.2
12,C76U U82G G83A C105A U134C U146A U148G,≤ -4.2
13,C79G G81U G133A,≤ -4.2
14,U82C C85U C114A,-3.22
15,G80C C93G A115C U144C,≤ -4.2
16,C79A U90G C95G C116A A119C G141U,≤ -4.2
17,C79U C108G U109G U139G U145C,≤ -4.2
18,C79A C103G C131A,≤ -4.2
19,G81A U148C,-1.48
20,C76U G94A C105U,-0.337
21,U82C G84A G117U,-0.688
22,C79A U82G C93A G141U G152U,≤ -4.2
23,G81C C125A G140C,-3.98
24,G81U G141A,0.321

row,Variant,polymerase ribozyme fitness (log ratio)
1,U78G U90G C131A,≤ -4.2
2,G80A A89G G117U,-1.48
3,C76U G88U,≤ -4.2
4,C76U C87G C125G,≤ -4.2
5,U82A A106U C116U G126U U145C,-2.88
6,U77G G92U A115U,≤ -4.2
7,U82A C93G,-3.41
8,U77G G141A,-4.18
9,G81U C93U G94U A98G C131A A137U,≤ -4.2
10,U78A C95G U127C U130G U139G,≤ -4.2
11,U77G C85U C108A A113G,≤ -4.2
12,G80A A91C G94A,-4.16
13,U82C G86A,-2.06
14,C79U C93A A98U A122U,-4
15,U78G C87G,≤ -4.2
16,C79U C93A,-3.77
17,C79U C93U,-3.03
18,G81C G117A A119C,0.184
19,G81A C87U G100U A115U C116U,-4.04
20,G81U C85A C95A,-1.06
21,U77G G86U U102C G140C,≤ -4.2
22,G80A C85A,-0.619
23,C76U C87A,-3.85
24,C76U C87G,-3.96

row,Variant,polymerase ribozyme fitness (log ratio)
1,G81C G126C,0.723
2,C76U C99A,-1.37
3,C76U G84A A119U U145G,-2.68
4,U77G C93A G143A U146C,≤ -4.2
5,C79G C87U G100U,-2.91
6,U82A C96G,-0.244
7,U82C G84A A98U A115U G141A,-2.58
8,G80C G92U C96U U135G A150G,≤ -4.2
9,U82C G94C C108A A110G A113G G140U,≤ -4.2
10,C79A C116A,-3.87
11,G81A C93G,-3.86
12,U77C G136U C149G,-4.11
13,G81C C85G C95G,-3.07
14,C79U C85G U101G,≤ -4.2
15,U77G U78C C85U,≤ -4.2
16,U78A G80A U82A A142U,≤ -4.2
17,U78C A142G,-1.33
18,U78C A142U,-1.72
19,U77G U82A A110C G136A A137U A138U,≤ -4.2
20,U78G A91C C131G,≤ -4.2
21,G80A G124A,0.289
22,C76U G88A C99A C103A,≤ -4.2
23,U77C C93U G100A A119U A150C,≤ -4.2
24,C79G G128U,≤ -4.2

row,Variant,polymerase ribozyme fitness (log ratio)
1,U82G C87U G92U A98G,-2.69
2,C79U U90A A137G,≤ -4.2
3,U82A U102G U144G,-1.48
4,U82C G83A C103U,-0.585
5,G81C C87A A91U C93U C114G A138C G141C,≤ -4.2
6,G80A C114U A137C,-3.92
7,C79G U148A,≤ -4.2
8,G80C G83A A110U,≤ -4.2
9,C79U C93U C95U,-4.08
10,G81A C85A C149U,-0.877
11,U78A C93A G124U,≤ -4.2
12,G81U G94C U144A,-0.944
13,G80A G83A A106U C116G U139C G143A,≤ -4.2
14,U77G G117U,≤ -4.2
15,G80C C87U U102G G124C U130A,≤ -4.2
16,C79U C87G,-3.61
17,C79A G86A,≤ -4.2
18,C79U G81U G92C U127G,≤ -4.2
19,C76U G88U A91C C93U G140C,≤ -4.2
20,C76U C93G C132U,-3.96
21,G80A C85U G136A G143C,-1.57
22,G80A C132U,-0.678
23,G81A G152C,-3.29
24,G81A G152U,-3.09

row,Variant,polymerase ribozyme fitness (log ratio)
1,C79A C108U,-4.06
2,C79A C93A C95U,≤ -4.2
3,G80U G84A G126C C132U U145A,-3.25
4,U77C G94C,-3.48
5,C76U G84C,-1.35
6,C76U G84U,-0.883
7,G81A C87U A97U,-1.53
8,U82G A113G C125U,-3.28
9,U77C C85A C108A U111C A113U,≤ -4.2
10,G80A G141A,-0.333
11,C76U C93A,-2.34
12,C79A C93G C95U U127G C131U G143U,≤ -4.2
13,U78G C85G A142G U146C,≤ -4.2
14,U82A A115U U135A,-2.53
15,U77G A91G G152A,≤ -4.2
16,C76U G84U C125U G141U,-3.46
17,U82G C85U A107U,-3.59
18,G80C G83U C118A G141C,-3.94
19,U82A U146A,-0.606
20,G81A C118A U148C,-2.6
21,U78A C93A G94U,-4.16
22,U77C A91U U146A,≤ -4.2
23,G81C G140C,-3.7
24,G80A G81A A120C,-0.393

row,Variant,polymerase ribozyme fitness (log ratio)
1,C76U C105G,-3.71
2,U77G G84U,≤ -4.2
3,C79A U139C A142G U148A,≤ -4.2
4,G80U C105U G136U,-1.49
5,U77A C87U A98C C103A C125U U135G,≤ -4.2
6,G80U U148C,-3.38
7,U82A U127C G152U,-3.97
8,G81A C87U A91U G112U G143A,≤ -4.2
9,G81A C85U C132A,-2.23
10,G81U C96U,-1.85
11,G80U C125A,-1.04
12,G81U C96U A150C,-3.33
13,G80U C95G C96A,≤ -4.2
14,U78G G141A,≤ -4.2
15,C79A C96A,-4.03
16,C79A C96G,≤ -4.2
17,C79G G84A G100A A110C,≤ -4.2
18,G80C G86U G94C A137C,≤ -4.2
19,G81A U127C,-2.04
20,G81A U127G,-3.31
21,U77G G81A A97G C99G U101C G141U A142G,≤ -4.2
22,U77A G88A,≤ -4.2
23,U82A C103G A113U A137C U148A,≤ -4.2
